This is an account of results in a protein production outcome set (Wang et al. 2014).
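Further: failed if final PepcDB status was selected cloned or expressed and not failed if soluble or beyond.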

The nature of the data set: label from the status in PepcDB records.
In the case of “RTKDGLTLYTRRWDVESPRAVICLVHGLGEHSGRYEHVARFFNENGISFAAFDLRGHGRSEGKRGHAEYQQLMDDITLFLQSLDYDCPKILYGHSMGGNLALNYILRYDPDIAGGIISAPFLALPKELPKHLFFILKLLNVVAPSIQLSNGIDPNLISRDREVVEAYVSDPLVHDKISPRFILQSLEAGKWALENADRLRKPILLIHGTADQITSYRASQEFAKRAGELCKFVSYEGFYHEPHNEPEKERVLADMLKWIEEVI”, the protein production entry was “failed”.
For “MKRTGILLVNLGTPKDSSKTEVRKYLKTFLSDRRVIKIHPIIWKPILNGIILNIRPKKSAKLYQKICTENGFPLLEYTEKQMENLKNICPEVEVTIGMSYSEPSIETALDTLLSKEIEELNVIPMYPQYSGTTVGSVFDSVMNYFIKSDRIVDIKFIRSFYNNPQYIDYFSKKINEALNESPIDAIVFSYHGIPMSYVKDGDNYPKECTKTTKLIMDKLGDIRYYQTYQSKFGPSEWLKPATDDTLKKLPSKGIKNILIVAPGFVVDCLETIEELEHENRNYFLENGGEVYKYVHPFNGDIEFAKLVKDIISL”, the protein production result is listed as “failed”.
For “MNVTGKLRGLISFSTVLPLKSEASIEDIASLTLHWPLVGALIGVAVGSAGVAASLVFPGAVVACVAYGFAIWFTGFHHLDGLIDMGDALMSHGSFERKIEIMRDPRIGTGGLGLLLIVSSTTIAAIYSLPQGVLFQGLLIGEVSAKVCLTGCARVSRPLDGGTGRHFIMASRSPFTGMVWIFWAVAAYLLAGVPGAVSVAVAVLSGVFIGLVARRNFYWSTGDVLGASNEVGRMMSLLGLLAAIRLTGL” the value was “failed”; for “KISNIFEDVEFCVMSGTDSQPKPDLENRIAEFGGYIVQNPGPDTYCVIAGSENIRVKNIILSNKHDVVKPAWLLECFKTKSFVPWQPRFMIHMCPSTKEHFAREYD”, “not failed”.
To “MSSEKVMSESSNASTKEGQLPRSSGVSWSLIMGAAFLMATSAVGPGFLTQTTVFTQTLGASFAFVILVSIILDIGAQLNIWRVIVVSKKRAQDIANDLLPGLGYAIAGTVALGGLAFNIGNIGGAGMGMNVLFPSISPVAGASISAVIAVAIFMLKDAAKVMDRFTILMGAALIVMTLYVLFSTSPPIGEALYRSVWPEKLNVLAIITLVGGTVGGYITFAGAHRLIDAGVTGKEALPQVNRGSVSAISVASIVRVILFLAALGVISTGVTLDPSNPPASMFQHAAGNIGYKIFGLVLWAAAITSVIGAAYTSVSFLKTLHPMIDLHSRKFIIGFIVISTFIFCFIGKPVVLLIVAGALNGFILPVTLGIMLIAAKKAQIVGDYKHPVWMSVFGWLITAMMAAMSVYTLYMLLI” belongs “failed”.
For “AEGTRGRSSTARCSLFGSDFVNTFDGSMYSFAGYCSYLLAGGCQKRSFSIIGDFQNGKRVSLSVYLGEFFDIHLFVNGTVTQGDQRVSMPYASKGLYLETEAGYYKLSGEAYGFVARIDGSGNFQVLLSDRYFNKTCGLCGNFNIFAEDDFMTQEGTLTSDPYDFANSWALSSGEQWCERASPPSSSCNISSGEMQKGLWEQCQLLKSTSVFARCHPLVDPEPFVALCEKTLCECAGGLECACPALLEYARTCAQEGMVLYGWTDHSACSPVCPAGMEYRQCVSPCARTCQSLHINEMCQERCVDGCSCPEGQLLDEGLCVESTECPCVHSGKRYPPGTSLSRDCNTCICRNSQWICSNEECPGECLVTGQSHFKSFDNRYFTFSGICQYLLARDCQDHSFSIVIETVQCADDRDAVCTRSVTVRLPGLHNSLVKLKHGAGVAMDGQDIQLPLLKGDLRIQHTVTASVRLSYGEDLQMDWDGRGRLLVKLSPVYAGKTCGLCGNYNGNQGDDFLTPSGLAEPRVEDFGNAWKLHGDCQDLQKQHSDPCALNPRMTRFSEEACAVLTSPTFEACHRAVSPLPYLRNCRYDVCSCSDGRECLCGALASYAAACAGRGVRVAWREPGRCELNCPKGQVYLQCGTPCNLTCRSLSYPDEECNEACLEGCFCPPGLYMDERGDCVPKAQCPCYYDGEIFQPEDIFSDHHTMCYCEDGFMHCTMSGVPGSLLPDAVLSSPLSHRSKR” the value was “failed”; for “MRYKRRFVTVYRDFPEGCGVPSKPISNADESFMQSKFNKDGIVLQAHEDFSKITKESSNHSETENSRTEDLLDEGSVLDSNGSVTDCQEDREREMSSVKKRCLSSHNLTSEVETERIGIVLGLAAKAKCPWRQPKIRGSRQVNDLN”, “failed”; for “MVSPKKLTPAMEQVKTFKEKYPDCILFMRMGDFYETFFEDAEICARELDIVQTSRSKDPEGNPIPLAGIPYHAVDLYLPRMIRKGYKVAVCEQVEDPKLAKGVVKRDVVRVVTPGTAIDADVIPGPTARYLMALCSDAKKTVMGLAFLDISTGEFFVREIPFEPGFSALATEIEQYNPLEILVPQGISADLISFLASTCKVLTPGRSGLFVDGTAELTAAFCVSSLDGFDVSSAECINAAAAALRYAKETQKTSLPHIRGFSRKYANDAMILDAITLRNLEILNPLRGDRNDTTLFGFLNRTKTPMGSRVLRSTITRPLTSPEKINHRLDAVGFFTRRPVLLSGTRTILSRFTDIERIAGRIAYGNASPRDLLALASSLAAVPELTAELCGAEGLLKDELEQIPSFDGVADLILSAIVDEPPLVYKNGGVIREGYSSDLDQIRNIVTNGRDWIAELQQTERERTGIRSLKIAYNNVFGYYIEITKANLHLVPDTYERKQTTANGERFTIPALREREAVMAQADDRVLALEISLFESLLTHLSEFVPALQQASRSIGTIDMIAAFADLSLSGNYVRPELVPGTELLIRDGRHPIVENTVPGGYVPNDTEMSSIGQQILILTGANMAGKSTYMRSVALICIMAQTGCFVPASFARIGIVDRVFTRVGASDDLAGGQSTFMVEMLELANILNNATDQSLILLDEIGRGTSTVDGYAIARAVLEYLHGKGGAGPRTLFATHFHQLIGMESELRRVRNYHFAVKEDQHDITFLRKLIPGATDRSYGIHVAKIAGVPKKVLVRASDLLREALTQDASSGGTKYYTQMLLTDAEPAPSAVEERIRDADPNMMTPMQALMFINELKALLEKK”, “failed”.
As to “MSENQSEEVQQIEKLYEFSERLNASKDKSQNVEDYEGIIKMSKTSMKAKQLASQLIPRYFKFFPSLSTEAFDAHMDCIDDGDLGVRVQAIRGLPLFCKDTPDILSKIVDVLVQLLNTEEPVERDAVHKALMSLLRQDPKASSTALFTHAGVTPTTDDQIREKVLNFIRDKVIPLKGELLKPQEEMERHITDLIKQSLEDVTGGEFKMFMDFLTSLSIFGGKAPPERMQELVEIIEGQADLNAQFEFSDTDHIDRLISCLQLALPFFARGAPSSRFLIYLNKHIIPVFDKLPEERKLDLLKALADISPYTTAQEARQLLPSIVELLKIYMPARKTGEEMNFTYVECLLYAFHHLAHKVPNATNSLCGYKIVTGQPSDRLGEDFSELNKDFTERLTIVEDLTKATMKKLTQGMTEHNKAMSAAKTDEEKASIVSTLTCAIFYFS”, the protein production entry is “failed”.
Consider “MGNFTFEEMNLMCIYNTGSRTGLIDSLREMRGELSPEETELRELTDSALTKLCAMTDEDFAQLELYPDFDQLEHHHHHH”, for which the protein production result was “not failed”.
For “MSGITMAMRGPRLEFAVGAFLLLTLASLLVLAVASTNQRWGFGSSQYTLTARFSQIGQLRAQAPVKIGGVTIGKVSDISLDPTKFDSIVTLSLDTRYKDLPADTSAGIFTSGLLGESYIGLQPGGDPDTLKPGDEIGFTQPAVDLLQLVGKYMFSGGGSGSNANVPAATNGQAPAPARTAPPPTEPHQ”, the protein production entry is on record as “failed”.
On to “MYPLAFAKEGEEVIVKKIDAGCGAMQRLVSMGINIGSKLKVIRNQNGPVIISTKGSNIAIGRGLAMKIMVEDAEYGGENEKLLEHHHHHH”, for which the protein production result is “failed”.
On to “MNIQQLEYIAALDKFRHFAKAADYCNVSQPTLSTMILKLEEELGAKLFDRSRQPIEPTSIGALVVSQAKQILYDLNSITRIIEEEQ”, for which the protein production result is given as “failed”.
To “MIPFPESRLAAQMSFVVEIDKLKTILRQTLLTDSSRRENDAEHSWHIATMAFLLAEYADEAVQIGRVARMLLIHDIVEIDAGDTFIHDEAGNEDKEERERKAAARLFGLLPPDQAAEYSALWQEYEARETADARFADALDRLQPLLHNFETEGGTWKPHGVTRAKVDKLLPRIEAGSKRLGAYARALVDEAVRRGYLAP” belongs “not failed”; to “MAMSHLFLSSSPQSSLALRLHSTTQFTLSYSKNNKDCSFQSANEAKVSKRSLLCRAIHMESGHSGEQPKKLNFDNLLRRTKHVWDNSPQPVKEFPWNRAFGNFIQLVLDLAISVVKFLFVPILAVSSISEMSYCAHERKLALVPFPLVIGMVVAGVLQETALKISPRLKEAEVPWHLIAMMMFFTLIKLPGPYYPYWGRLLVPHFANGVLLRALWSMFFWYKKTRNTSGNPLQNHSLETE”, “failed”.
